Source: the domain aggregation screens of Martell et al. (2025)

assay: soluble fraction after stress (log2 fold change); higher = more stays soluble; pooled small domains, quantitative proteomics; conditions: stress: 75 degC
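Further: 20 min heating vs room temperature control held 20 min.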

Row | Sequence | soluble fraction (log2)
1 | HMKSKNRLTKSYLDSIPGVGRKRKSILLRYFGSIDQIKRASSEDIANVPGIGKITSDLVYNYFNQ | -0.811
2 | HMKSLAQELVDALGDRIRDGRLKVGDKLPSEAAIEAQYGVSRTVVREAISRLQAAGLVVTRHGIGTFIVGI | -2.45
3 | HMKSLLDQINGIGAIRKRALLNHFGSARAVESASLDEIKSVEGVEAKVAKKIYNFFHEYKNMLR | -1.51
4 | HMKSLLSRREQEVLELVSRGFSYSEIAELKNLSVHTIQTHIKSLYGKLEVHSKMEAVLEATRMGLLPQ | -2.34
5 | HMKSSLAKNLETLMQERQISQTRLSKISGVSQSYIFKILNDQIKKPSLDTLEKLATALDSTVAQLNH | -0.433
6 | HMKSSTEIIYSDFLREVSNGQISEVTIQGDFVRGLFLSGSSFQTYAPKDSNLINILRDKKVRIKVHPP | -1.07
7 | HMKSTELSIIEALRVLGLKHGASQDSIKKSYRRLVKQHHPDLGGSADSFRKVNEAYQLLIMN | -0.749
8 | HMKSVILQLHPETLRWIREEAQADMADASVIQLLNDWELGTKKPTLSQVQKLSHETHIPFGYFFLKEKPA | -0.64
9 | HMKSVQIPQSITVKEFSQAIEVSVADVIKKLMSMGVMVSQNKEINVDTAILVGEEFGVTVNVA | 0.609
10 | HMKSVTVIFKESGNVVSSKKLSVVATAQYVDKSRITAPAGYRIATTDSKLKISENNTVTVEVK | -0.496
11 | HMKSYTYNPNYLSDYNAYRLGIPLEALERLQLHRSTGRYVNSLSDFQSVTGISDSLKHSLSSSLRFPN | -1.36
12 | HMKTDLQIQQDVMAELKWEPKVNAAHIGVEVKHGVVTLSGHVDSFAEKWNAEQAAKRVAGVKFIAIELDV | -2.1
13 | HMKTEIKSPLPGIVLKIFVRTGEYVDKNQRLFSLEAMKMENEIKAERAGVIAGIRISEGQSVLQDEVIMEM | -3.7
14 | HMKTFQSYQTTSMSNVNLRKRANGTSTILKRIKVGDTVTVVGKSGNYYQIQFDGKEGYALIKYIDGTDSGA | -1.95
15 | HMKTFSTRLIALREAIGVNQSELARRVGVTPQAVQKWESGANGPRGKRLEKLASELRSTVGYLVSGEGDG | -0.434
16 | HMKTGAKLKNLRKMKKLSQEEVAKVLNLSYSTLSRWENDTRIPTYEDLFKLGQFYGVSVDYLSDPN | -0.98
17 | HMKTGNIITVSLVWKGKYYMIRMFFPSASRPTRSDVQNEIEKVYPGSKLSTFSVSDYEPGQPLLQV | -1.6
18 | HMKTGNPYAQRNTADMYNYGRGIEKDSYLAFVWYFAAYKQGNDNAKPQIDSITASGHLSPNQQLHAKIE | -0.243
19 | HMKTIQVGSTVRVNQGAKTYSGGGLASFVYKRNHKVSQLQGDRAVITYEGTVVAAVHVSDLSLIH | -0.192
20 | HMKTLELIAAIRKRIAGGYAGADGRLPNIGEIAKDFSVSPMTAQKAVRALVEAGVLTSTRRKGVFLKQPAS | -2.09
21 | HMKTLGMDKGVNIALNDAGLRAEDVSNLSAHYDTEDGVPVYEIKFTAGGFSYEYQIKASDGTIIEADRDAA | -0.00738
22 | HMKTMAVYPVGTRVLTSDGEIGVVEKQNSEAPERPVIKILKGADGHDYEKPDFKDLMKILTLFIVDTI | 0.182
23 | HMKTMSLSSIEKAIYKTKYENEPTSQRLSRIESSVFGTNFSQDSESERIARISSAINAQKSAK | 0.0313
24 | HMKTMTTIRKGSRGDTVATLQRKLNLIADGIFGPITDEAVRDFQKSHGLAVDGIVGPKTWAALGVGS | 0.00482
25 | HMKTNQINVSGLSKEKNFEVLESLDVYKFYNLFFLNKIKIDQLINSYNHIDNYSVFKKYPSSLIVKLSE | 0.0213
26 | HMKTPETSEYVVQAGDSLRRILTERYGAKEQDLPYLYRQFRLLNPKVSSLDNIHAGTKVRIPLVASVL | -0.135
27 | HMKTPRKVFTVLIRNTEYDVYDIDGKEHQGYNDTPKTWWLYHSERLPEGMIPPIDSDSWKPYSVGT | -1.27
28 | HMKTTKESLLEYIQREVFTDSIHKEGLSTNEIADAFQIQRSNVSSLLNTLVKEGKLEKTTGRPVLYRIPEK | -0.126
29 | HMKVEFDAMDKRILELMAKEYDTVLMARHLPLTPIVIDVRKKRIREVLNLPDATDAEIVIEAKEKDII | -1.08
30 | HMKVEIVRVVKDIHIGDEITKDMVRTVEVGGYNLPDGVVKDTATVIGRFASADMVPGDYIISSKIADAP | -0.378
